Data published in patent US20180066015A1, “INHIBITORS OF GROWTH FACTOR ACTIVATION ENZYMES” (Washington University, published 2018).
Like-named read-outs stand apart in the source and are kept apart here. *: point of attachment. ketothiazole = C-terminal ketothiazole (kt), c1csc(*)n1; Kbt = ketobenzothiazole, c1ccc2sc(*)nc2c1; kt = C-terminal ketothiazole, c1csc(*)n1

T1: Boc-QAR-AMC
T1 sequence (peptide, N-terminal Boc; C-terminal AMC): QAR

T2: matriptase (Charles Craik, UCSF), recombinant (Homo sapiens (Human), UniProt Q9Y5Y6)
T2 sequence: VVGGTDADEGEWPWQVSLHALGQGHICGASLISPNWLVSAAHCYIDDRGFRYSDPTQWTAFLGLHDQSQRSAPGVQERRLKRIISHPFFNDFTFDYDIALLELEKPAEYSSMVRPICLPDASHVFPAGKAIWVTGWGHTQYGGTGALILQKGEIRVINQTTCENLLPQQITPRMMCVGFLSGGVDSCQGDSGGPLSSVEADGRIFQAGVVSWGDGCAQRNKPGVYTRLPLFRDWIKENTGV

T3: matriptase (Charles Craik, UCSF), recombinant (Homo sapiens (Human)) (UniProt Q9Y5Y6)
T3 sequence: T2 sequence

B1: Ac-RKLR(SEQ ID NO: 18)-kt (peptide)
peptide: Ac-RKLR-kt
SMILES: CC(=O)N[C@@H](CCCNC(=N)N)C(=O)N[C@@H](CCCCN)C(=O)N[C@@H](CC(C)C)C(=O)N[C@@H](CCCNC(=N)N)C(=O)c1nccs1
B2: Ac-SKLR(SEQ ID NO: 10)-kt (peptide)
peptide: Ac-SKLR-kt
SMILES: CC(=O)N[C@@H](CO)C(=O)N[C@@H](CCCCN)C(=O)N[C@@H](CC(C)C)C(=O)N[C@@H](CCCNC(=N)N)C(=O)c1nccs1
B3: Ac-WQLR(SEQ ID NO: 3)-kt (peptide)
peptide: Ac-WQLR-kt
SMILES: CC(=O)N[C@@H](Cc1c[nH]c2ccccc12)C(=O)N[C@@H](CCC(N)=O)C(=O)N[C@@H](CC(C)C)C(=O)N[C@@H](CCCNC(=N)N)C(=O)c1nccs1
B4: Ac-RQLR(SEQ ID NO: 6)-kt (peptide)
peptide: Ac-RQLR-kt
SMILES: CC(=O)N[C@@H](CCCNC(=N)N)C(=O)N[C@@H](CCC(N)=O)C(=O)N[C@@H](CC(C)C)C(=O)N[C@@H](CCCNC(=N)N)C(=O)c1nccs1
B5: Ac-WKLR(SEQ ID NO: 12)-kt (peptide)
peptide: Ac-WKLR-kt
SMILES: CC(=O)N[C@@H](Cc1c[nH]c2ccccc12)C(=O)N[C@@H](CCCCN)C(=O)N[C@@H](CC(C)C)C(=O)N[C@@H](CCCNC(=N)N)C(=O)c1nccs1
B6: Ac-SKFR(SEQ ID NO: 13)-kt (peptide)
peptide: Ac-SKFR-kt
SMILES: CC(=O)N[C@@H](CO)C(=O)N[C@@H](CCCCN)C(=O)N[C@@H](Cc1ccccc1)C(=O)N[C@@H](CCCNC(=N)N)C(=O)c1nccs1
B7: matriptase (Charles Craik, UCSF), recombinant (enzyme)
chain: T2 sequence
B8: Ac-KFLR(SEQ ID NO: 5)-kt (peptide)
peptide: Ac-KFLR-ketothiazole
SMILES: CC(=O)N[C@@H](CCCCN)C(=O)N[C@@H](Cc1ccccc1)C(=O)N[C@@H](CC(C)C)C(=O)N[C@@H](CCCNC(=N)N)C(=O)c1nccs1
B9: Ac-WRLR(SEQ ID NO: 9)-kt (peptide)
peptide: Ac-WRLR-kt
SMILES: CC(=O)N[C@@H](Cc1c[nH]c2ccccc12)C(=O)N[C@@H](CCCNC(=N)N)C(=O)N[C@@H](CC(C)C)C(=O)N[C@@H](CCCNC(=N)N)C(=O)c1nccs1
B10: Ac-KQLR(SEQ ID NO: 1)-Kbt (peptide)
peptide: Ac-KQLR-Kbt
SMILES: CC(=O)N[C@@H](CCCCN)C(=O)N[C@@H](CCC(N)=O)C(=O)N[C@@H](CC(C)C)C(=O)N[C@@H](CCCNC(=N)N)C(=O)c1nc2ccccc2s1
B11: Ac-SHLR(SEQ ID NO: 11)-kt (peptide)
peptide: Ac-SHLR-kt
SMILES: CC(=O)N[C@@H](CO)C(=O)N[C@@H](Cc1c[nH]cn1)C(=O)N[C@@H](CC(C)C)C(=O)N[C@@H](CCCNC(=N)N)C(=O)c1nccs1
B12: Ac-SRLR(SEQ ID NO: 15)-kt (peptide)
peptide: Ac-SRLR-kt
SMILES: CC(=O)N[C@@H](CO)C(=O)N[C@@H](CCCNC(=N)N)C(=O)N[C@@H](CC(C)C)C(=O)N[C@@H](CCCNC(=N)N)C(=O)c1nccs1

Columns and labels:
Boc-QAR-AMC = target: T1, Boc-QAR-AMC
[1] = target: Ac-Ala-Arg-Leu-P1-ACC, P1 = L-Leu (L)
[2] = target: Ac-Ala-Arg-Leu-P1-ACC, P1 = L-Thr (T)
[3] = target: Ac-Ala-Arg-Leu-P1-ACC, P1 = L-His (H)
[4] = target: Ac-Ala-Arg-Leu-P1-ACC, P1 = L-Val (V)
[5] = target: Ac-Ala-Arg-Leu-P1-ACC, P1 = L-Phe (F)
[6] = target: Ac-Ala-Arg-Leu-P1-ACC, P1 = L-Pro (P)
[7] = target: Ac-Ala-Arg-Leu-P1-ACC, P1 = L-Lys (K)
[8] = target: Ac-Ala-Arg-Leu-P1-ACC, P1 = L-Asn (N)
[9] = target: Ac-Ala-Arg-Leu-P1-ACC, P1 = L-Asp (D)
[10] = target: Ac-Ala-Arg-Leu-P1-ACC, P1 = L-Gln (Q)
[11] = target: Ac-Ala-Arg-Leu-P1-ACC, P1 = L-Ile (I)
[12] = target: Ac-Ala-Arg-Leu-P1-ACC, P1 = L-Tyr (Y)
[13] = target: Ac-Ala-Arg-Leu-P1-ACC, P1 = L-Ser (S)
[14] = target: Ac-Ala-Arg-Leu-P1-ACC, P1 = L-Glu (E)
[15] = target: Ac-Ala-Arg-Leu-P1-ACC, P1 = Gly (G)
[16] = target: Ac-Ala-Arg-Leu-P1-ACC, P1 = L-Ala (A)
[17] = target: Ac-Ala-Arg-Leu-P1-ACC, P1 = L-Met (M)
[18] = target: Ac-Ala-Arg-Leu-P1-ACC, P1 = L-Trp (W)
recombinant thrombin [19] = experiment: chromogenic inhibition assay
Factor Xa [20] = experiment: chromogenic inhibition assay
[21] = target: Hepatocyte Growth Factor Activator (HGFA) serine protease domain, N-terminal His-tag, recombinant (Homo sapiens (Human)) (UniProt Q04756); experiment: fluorogenic inhibition assay
[22] = target: Hepatocyte Growth Factor Activator (HGFA) serine protease domain, N-terminal His-tag, recombinant (Homo sapiens (Human)) (UniProt Q04756)
[23] = target: T4, Recombinant human hepsin (4776-SE-010, R&D Systems), activated (human, UniProt P05981); experiment: fluorogenic inhibition assay
Procedure: (§1) Inhibitors (11-pt serial dilutions, 0-20 μM final concentration in reaction) were serially diluted in DMSO (2% DMSO final concentration) and then mixed with either recombinant serine protease domain of HGFA [Z. Han, P. K. Harris, D. E. Jones, R. Chugani, T. Kim, M. Agarwal, W. Shen, S. A. Wildman, J. W. Janetka, Acs Med Chem Lett 2014, 5, 1219-1224], matriptase (Charles Craik, UCSF) or hepsin* (#4776-SE-010, R&D Systems, Minneapolis, Minn.) in black 384 well plates (Corning #3575. Corning, N.Y.). […] The final substrate concentrations for all assays were at the Kₘ for the respective enzymes. Changes in fluorescence (excitation at 380 nm and emission at 460 nm) were measured at room temperature over time in a Biotek Synergy 2 plate reader (Winnoski, Vt.). Using GraphPad Prism version 6.04 software program, (GraphPad Software, San Diego, Calif., www.graphpad.com), a four parameter curve fit was used to determine the inhibitor IC₅₀s from a plot of the mean reaction velocity versus the inhibitor concentration. The IC₅₀ values represent the average of three separate experimental determinations.

[24] = target: T2, matriptase (Charles Craik, UCSF), …; experiment: fluorogenic inhibition assay
Procedure: as §1

[25] = target: T3, matriptase (Charles Craik, UCSF), recombinant (Homo sapiens (Human))
[26] = target: Recombinant human hepsin (4776-SE-010, R&D Systems), activated (human) (UniProt P05981)
Trypsin = experiment: selectivity inhibition assay
recombinant thrombin [27] = experiment: selectivity inhibition assay
Factor Xa [28] = experiment: selectivity inhibition assay
[29] = target: Hepatocyte Growth Factor Activator (HGFA) serine protease domain, N-terminal His-tag, recombinant (Homo sapiens (Human)) (UniProt Q04756); experiment: fluorogenic inhibition assay; remark: listed apart in the source
[30] = target: T4, Recombinant human hepsin (4776-SE-010, …); experiment: fluorogenic inhibition assay; remark: listed apart in the source
Procedure: as §1
(§2) Fluorescent inhibitor and chromogenic proteolytic assays were performed in general accordance with the procedures described in Example 4 for compounds prepared in Examples 5 and 6.

[31] = target: T2, matriptase (Charles Craik, UCSF), …; experiment: fluorogenic inhibition assay; remark: listed apart in the source
Procedure: as §1, §2

Molecule | Ki [21] [nM] | IC50 of enzyme inhibition [22] [nM] | Ki [23] [nM] | Ki [24] [nM] | IC50 of enzyme inhibition [25] [nM] | IC50 of enzyme inhibition [26] [nM] | further results
Recombinant human hepsin (4776-SE-010, R&D Systems), activated (from UniProt P05981) (enzyme) |  |  |  |  |  |  | Km of fluorogenic substrate (Boc-QAR-AMC): 156 µM; % activity, P1 position [1]: 0.03%; % activity, P1 position [2]: 0.45%; % activity, P1 position [3]: 0.17%; % activity, P1 position [4]: 0%; % activity, P1 position [5]: 0.12%; % activity, P1 position [6]: 0.04%; % activity, P1 position [7]: 2.34%; % activity, P1 position [8]: 0%; % activity, P1 position [9]: 0%; % activity, P1 position [10]: 0%; % activity, P1 position [11]: 0.08%; % activity, P1 position [12]: 0.3%; % activity, P1 position [13]: 0.2%; % activity, P1 position [14]: 0.13%; % activity, P1 position [15]: 0.07%; % activity, P1 position (Ac-Ala-Arg-Leu-Arg-ACC): 100%; % activity, P1 position [16]: 0.49%; % activity, P1 position [17]: 0%; % activity, P1 position [18]: 0.7%
Ac-KQFR(SEQ ID NO: 4)-kt (peptide) | 58 | 470 |  |  |  |  | Ki (recombinant thrombin [19]): > 20000 nM; Ki (Factor Xa [20]): 78.8 nM
B1 | 17 | 370 | 0.47 | 0.83 |  |  | 
B2 | 81 | 560 | 1.2 | 58 | 48 |  | Ki (recombinant thrombin [19]): > 20000 nM; Ki (Factor Xa [20]): 3060 nM
B3 | 65 | 471 | 0.21 | 32.4 | 49 | 1 | 
B4 | 60 | 270 | 0.28 | 0.32 | 1 | 1 | Ki (recombinant thrombin [19]): > 20000 nM; Ki (Factor Xa [20]): 8.1 nM
B5 | 56 | 320 | 0.55 | 8.6 | 97 | 4 | 
B6 | 57 | 520 | 8.5 | 3.03 | 34 | 51 | Ki (recombinant thrombin [19]): > 2000 nM; Ki (Factor Xa [20]): 530 nM
LLR (N-terminal acetyl; C-terminus printed as -H) [Leupeptin (Ac-LLR-H)] | 188 | 535 | 61 | 696 | 1150 | 256 | 
B7 |  |  |  |  |  |  | Km of fluorogenic substrate (Boc-QAR-AMC): 93 µM
B8 | 80 | 330 |  |  | 35 | 22 | 
B9 | 21 | 275 | 0.21 | 5.5 | 31 | 0.3 | 
B10 | 30 |  |  |  |  |  | Ki (Trypsin): 0.24 nM; Ki (recombinant thrombin [27]): > 20000 nM; Ki (Factor Xa [28]): 129 nM; fold change of potency against thiazole 5 [29]: 2 fold; Ki [30]: 0.09 nM; Ki [31]: 0.55 nM
B11 | 332 | 1800 | 0.6 | 104 | 560 | 5 | 
B12 | 24 | 303 | 0.68 | 5.8 | 24 | 5 | 
